Experimental findings from PMC7841792 are described below.

Substrate in this series: C[C@H](O)C(=O)O
The series is described as follows: purified protein. The conditions noted are these: 20 mM HEPES pH 7.4, 50 μM Ampliflu Red, 0.1 U/mL HRP, mean ± SEM, n = 3, lactate enantiomer not given.

B1: lactate oxidase (LOX, EC 1.1.3.2) (Aerococcus viridans ATCC 11563 = CCUG 4311) (protein)
chain: MNNNDIEYNAPSEIKYIDVVNTYDLEEEASKVVPHGGFNYIAGASGDEWTKRANDRAWKHKLLYPRLAQDVEAPDTSTEILGHKIKAPFIMAPIAAHGLAHTTKEAGTARAVSEFGTIMSISAYSGATFEEISEGLNGGPRWFQIYMAKDDQQNRDILDEAKSDGATAIILTADSTVSGNRDRDVKNKFVYPFGMPIVQRYLRGTAEGMSLNNIYGASKQKISPRDIEEIAGHSGLPVFVKGIQHPEDADMAIKRGASGIWVSNHGARQLYEAPGSFDTLPAIAERVNKRVPIVFDSGVRRGEHVAKALASGADVVALGRPVLFGLALGGWQGAYSVLDYFQKDLTRVMQLTGSQNVEDLKGLDLFDNPYGYEY
The Km is the concentration of substrate that gives half-maximal velocity. One may read the Vmax as the rate approached at saturating substrate. For the protein B1, the Km worked out at 1620 ± 480 µM and the Vmax came to 22 µmol/min/mg.
